Measurements reported in the DeepSol protein solubility set.

Experiment: soluble on expression in E. coli; label from the status in PepcDB or PDB records

Sequence | soluble on expression in E. coli
MSESFAELFEESLKTLNLQAGSIITGVIVDIDYQARWVTVHAGLKSEALIPLEQFYNDAGELSINVGDEVHVALDSVEDGFGETKLSREKAKRAECWIVLEAAFAAEEVVKGVINGKVKGGFTVDVNGIRAFLPGSLVDVRPVRDTTHLEGKELEFKVIKLDQKRNNVVVSRRSVLEAENSAEREALLESLQEGQQVKGIVKNLTDYGAFVDLGGVDGLLHITDMAWKRIKHPSEIVNVGDEIDVKVLKYDRERNRVSLGLKQLGEDPWVAIKARYPESTRVTARVTNLTDYGCFAELEEGVEGLVHVSEMDWTNKNIHPSKVVQVGDEVEVMVLDIDEERRRISLGIKQCKSNPWEDFSGQFNKGDKISGTIKSITDFGIFIGLDGGIDGLVHLSDISWNEVGEEAVRRFKKGDELDTVILSVDPERERISLGIKQLESDPFSEYVQENDKGAIVKGVVKEVDAKGAIITLANDIEATLKASEISRDRIEDARNVLKEGEEVEAKIISVDRKSRVIQLSIKSKDVEDEKEAIQSLRDKPAASDIAAGPTTLGDLLRAQMEKQN | soluble
MSLSNLPADSFRVGVSEDRNRRCRRTMEDAHSFVYDFAGVKGQGYFAVFDGHAGKHAAEWCGQNFHEYLLDGLLIEPDTPVPDLMNKTFHLVDKRLSHLAHAAGTSSGCTAVTAFLRVEEMDDNDSFRKGFTNPGLQPRGLWEGKGEDELESQTSLQPSSRRSSMGGGTGGQMGGASAPGVNGRTGSLARRLSSKKIRDFVKGLTGGMEKNFDEAITEDEGVISAADGTRVEAIEPKSEKGVRRVLYTANVGDARAVLCRGGKAVRLTYDHKGSDAQEAKRITDAGGFVMNNRVNGVLAVTRSLGDASMKEFVVGAPYTTETTLDEQDEFLIVACDGLWDVCSDQEAVEIVHLVTDPQEASKRLLDHAMSNFSTDNLSVMVVRFNHEGHHHHHH | soluble
MGFPKEGEKVQIHSYKHNGSIHRMWEETTILKGTQSLVIGANDRTVVTESDGRTWITREPAICYFHANYWFNVIGMLREDGVYYYCNLSSPFAYDPEALKYIDYDLDIKVYPDMTYTLLDEDEYEKHSEIMQYPPVIDTILKRNVAHLTQWIHQRKGPFAPDFVDMWYERYLMYRN | not soluble
MSLSNGAPGTRIASAVGAFDVSRRASLTRGAGEAVERFALVPVPADSEHLLARNGSADPQIDFVSAGLGHVSALACDVPWYRAVDLLTGKPTQVPAPVVDYTPGRGESNSWDAFFDPSPNGAASGPSEAFAQTSAIAEVMERDAFLAAWRHKIPLQKFDAKSMPVAVRQGAEARGLSLLLVAARAAGVEPTLAFIPNNGSPLLTAVCIITEEKGPVCYGAVGLKAASDPVSALKGALQEGLQIRELFLTRAHSADPASASPVSAPSVATVTDDDSRAHFWTTAPAIAELRRWVGSFQPSNFPSKQPEPDLDALVKHLAGRNVRSHWVNLTHRLPAAIRELGWVAGKAVCPGAVPLTMDETKELFVMPGSEGHHHHHH | soluble
MISSKLKLQSLTSKDLSAILELDQACFGGLWTMEGYQRELDSPNSDLLGLFSPSSPIKLLGMGCFWSIVGEAHITILAVHPQYHHQGLGQALLYFLLRTASDRGLERATLEVRASNEAAISLYQKFGFQTAGRRRAYYQDNGEDALILWLPDLQYPQFQETLAHWKTIIQDGLQKYSWSIVNSR | soluble
GMSISSKAKEILTQFTREVWSEGNIEASDKYIAPKYTVLHDPGDPWEGRELDVAGYKERVKTLRAAFPDQCFDIQGLFADGDAVVMTWLWTATHKEDIPGFPSTGKQIKMSGATVYYFDGNRLTGHWQITDRLGVYQQLRQAAAGA | soluble
GPLGSPEFPGMSKVFIATANAGKAHDADIFSVSACNSFTVSCSGDGYLKVWDNKLLDNENPKDKSYSHFVHKSGLHHVDVLQAIERDAFELCLVATTSFSGDLLFYRITREDETKKVIFEKLDLLDSDMKKHSFWALKWGASNDRLLSHRLVATDVKGTTYIWKFHPFADESNSLTLNWSPTLELQGTVESPMTPSQFATSVDISERGLIATGFNNGTVQISELSTLRPLYNFESQHSMINNSNSIRSVKFSPQGSLLAIAHDSNSFGCITLYETEFGERIGSLSVPTHSSQASLGEFAHSSWVMSLSFNDSGETLCSAGWDGKLRFWDVKTKERITTLNMHCDDIEIEEDILAVDEHGDSLAEPGVFDVKFLKKGWRSGMGADLNESLCCVCLDRSIRWFREAGGK | soluble
MGSDKIHHHHHHMQDFLEFQSISKGYPGVQALSEVSFSVRKGAVHGLMGENGAGKSTLIRVLSGDQAADTGEIRINGEPQHYRSVRDAFNAGVIVIHQELQLVPELTVAENLWLGRFPGKAGVIDRRQLIRVVSDRLAEIGIDVDPEAKVASLSIGERQMVEIAKAVMTDARVIALDEPTSSLSSRESEILFALIDRLRSNGTVILYVSHRLDEIFRLCNSLTVLRDGRLAAHHPDISKVGREQIIAEMVGREISNIWGWRARTLGAARLTVERVSGANLPQPISFTVRAGEILGFFGLIGAGRSEMARLVYGADRRRQGKVLVDGLAVPADSPRLSIRAGVVLCPEDRKFDGIVQGRSIEENMAISSRRHFSPFGVVDKGKEAELAERFIAKLRVRTPSRHQDIVNLSGGNQQKVILGRWLSEEGVKVLLIDEPTRGIDVGAKSEIYEILYELAAQGMAIVVISSELPEVMGIADRILVMCEGRIAAEIDRSDFDEHRILAAALPDASATTATLPEQVS | not soluble
MSLDGQGEAVVEGHEAALLLSESRASVDPELRSAIATLPESMRRVALYHFGWQHADGTPAAGNAGKAIRPALVLTAAAALGGPGARAAAVRAAAAVELVHNFTLLHDDVMDRDATRRHRPTAWTVFGDADAILAGDALQALALRLFAADPHPASAAAATRLADCVMELCEGQHADTAMERRPPDEVTLDETLVMAEAKTGALLGCACAVGALYAGAATEDVEALDAFGREAGMAFQLIDDVIGIWGDPRHTGKPAGADLAARKKSLPVVAALTSGTPAAAELAELYTGPYDENKEDLERTALAVERAGGRDWAQAQAADRMARAMQELARAVPEPEAAGGLLALAEFVTRRSTEGHHHHHH | soluble
MISFNNVSKVYESGGQSVHAVEDVTLSVEKGEIFGIIGFSGAGKSTLLRLVNMLERPTAGTISIDDKDITSLSTKELRKLRQRIGMIFQSFNLFNSRTVFGNIAYPLKLAKVPKNEIKERVNELLKFVGLEDKANNYPEQLSGGQKQRVGIARALATSPDILICDEATSALDPETTTEILNLLKKVNREYNLTILLITHEMHVVKEICHRVAVMEKGKVIEEGKLFDVFTQPKTTTTQNFVRSVINDHLPESVLAKIQNGGQIYRLTFTGEETGQPVLSYIAKNYNVDVNVLYGNIIELQNVLFGNLLVELQGEQREIQKALQHLRLQVQLKEVEAHAS | not soluble
MSLKDYRLFLIDLDGTIYRGKETIESGVRFVKRLDEAGLDYLFLTNNTTRTPQMVADKLAGHGVKTDVSKIYTPSMATASYILEKEAKRPIGVYIIGQIGLWKEILDRPEFYYDEENPDYVIVGMDTDLTYHKLMVATRCIHRGAVFIGTNSDQNLPVGKELRPGNGSICAALEVASGQKPLFIGKPEAIIVNRALDLAGVKAEEALIVGDNYPTDIMAGINSGVDTLLTLTGVTQKADLAGLTPPTYLVNDLDEFSEGHHHHHH | soluble
MKIDLPPLRQFLNRLLALTIRMQNVIFERFELLLSQQIETAIANGIFEAGVETLRAERFTIESCESVYTHPDTGSVTNYLKVEQVQRNNIRTAVEMLEFAAKYQGQLMVNQKSSNAAVSIPTHSIFDCDGGVVPRVLLVRPQKETRVPVEQLESSTWQQVSAEEFVTAWSREVDELPRFTTDYLHLVTGILLPIWKILPQKNSRVFRLQTSDGQKILGRVVHASDIQTVTEQLGLKNKLLSPAELEHHHHHH | not soluble
PSMPASPVLTKAGITWLSLQWSKPSGTPSDEGISYILEMEEETSGYGFKPKYDGEDLAYTVKNLRRSTKYKFKVIAYNSEGKSNPSEVVEFTTCPD | soluble
GPPQMSATNEDLKTNFHSLHNQMRQMPMSHFREALDAPDYSGMRQSGFFAMSQGFQLESHGGDVFMHAHRENPQCKGDFAGDKFHISVQREQVPQAFQALSGLLFSVDSPIDKWKVTDMERVDQQSRVAVGAQFTLYVKPDQENSQYSASSLHNTRQFIECLESRLSESGLMPGQYPESDVHPENWKYVSYRNELRSGRDGGEMQSQALREEPFYRLMAE | soluble
